Test results: patent publication US20090297470

Tests used:
Diprotin A (Ile-Pro-Ile) = biological target: T1, Diprotin A (Ile-Pro-Ile)
T1 chain: IPI

[1] = biological target: recombinant SDF-1α (1-68), full length, 7.97 kDa

B1: CD26/dipeptidylpeptidase IV (DPP-IV), endogenous enzyme in heart lysates of wild type C57BL/6 mice (protein)
chain: MKTPWKVLLGLLGVAALVTIITVPIVLLSKDEAAADSRRTYSLADYLKSTFRVKSYSLWWVSDFEYLYKQENNILLLNAEHGNSSIFLENSTFESFGYHSVSPDRLFVLLEYNYVKQWRHSYTASYNIYDVNKRQLITEEKIPNNTQWITWSPEGHKLAYVWKNDIYVKVEPHLPSHRITSTGEENVIYNGITDWVYEEEVFGAYSALWWSPNNTFLAYAQFNDTGVPLIEYSFYSDESLQYPKTVWIPYPKAGAVNPTVKFFIVNIDSLSSSSSAAPIQIPAPASVARGDHYLCDVVWATEERISLQWLRRIQNYSVMAICDYDKINLTWNCPSEQQHVEMSTTGWVGRFRPAEPHFTSDGSSFYKIISDKDGYKHICHFPKDKKDCTFITKGAWEVISIEALTSDYLYYISNQYKEMPGGRNLYKIQLTDHTNVKCLSCDLNPERCQYYAVSFSKEAKYYQLGCWGPGLPLYTLHRSTDHKELRVLEDNSALDRMLQDVQMPSKKLDFIVLNETRFWYQMILPPHFDKSKKYPLLLDVYAGPCSQKADASFRLNWATYLASTENIIVASFDGRGSGYQGDKIMHAINRRLGTLEVEDQIEAARQFVKMGFVDSKRVAIWGWSYGGYVTSMVLGSGSGVFKCGIAVAPVSRWEYYDSVYTERYMGLPIPEDNLDHYRNSTVMSRAEHFKQVEYLLIHGTADDNVHFQQSAQISKALVDAGVDFQAMWYTDEDHGIASSTAHQHIYSHMSHFLQQCFSLH
B1 was tested, and the “proteolytic DPP-IV activity (H-Gly-Pro-AMC) in myocardium and serum 2 days after MI” value (Diprotin A (Ile-Pro-Ile)) was “Combined application of G-CSF and Diprotin A in wt mice ("G-CSF-DipA mice") lead to a decreased DPP-IV activity after MI only in the myocardium but not in the serum” and the “mass spectrometry of recombinant SDF-1 incubated with heart lysates (cleavage product peak)” value [1] was “lysates derived from wt animals also showed high abundance of a second peak at 7.748 kDa corresponding to N-terminal cleavage of SDF-1α by DPP-IV”.
